Data on one molecule can be found in article PMC6035221, “Interaction between parasite-encoded JAB1/CSN5 and macrophage migration inhibitory factor proteins attenuates its proinflammatory function” (Scientific Reports, 2018).

This assay deals with T1, GST-tagged full-length EhJAB1 (Entamoeba histolytica, UniProt C4LTS3 1-318).
T1 construct: EhJAB1 of Entamoeba histolytica, EHI_050500, full length (gene of 957 base pairs; deletions count to residue 318), codon optimized; Cloned in pDEST15 and sub-cloned in pGEX-4T1; also called GST-EhJAB1; GST-JAB1; source: E. coli BL21(DE3); purified on glutathione-sepharose (BLI)
T1 sequence (looked up): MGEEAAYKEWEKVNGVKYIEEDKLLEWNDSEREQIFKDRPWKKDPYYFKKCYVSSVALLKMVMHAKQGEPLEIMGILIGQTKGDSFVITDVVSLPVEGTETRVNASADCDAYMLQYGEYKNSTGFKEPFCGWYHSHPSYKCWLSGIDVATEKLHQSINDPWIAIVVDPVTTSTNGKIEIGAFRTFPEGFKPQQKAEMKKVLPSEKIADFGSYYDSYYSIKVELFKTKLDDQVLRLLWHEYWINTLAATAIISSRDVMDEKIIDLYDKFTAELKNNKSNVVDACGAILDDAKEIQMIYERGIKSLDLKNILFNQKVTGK
Kind of assay: BLI; GST-EhJAB1 or GST loaded on anti-GST biosensors; EhMIF 5 to 80 nM (2-fold series); 1x DPBS, 0.1% BSA, 0.02% Tween 20; association 600 s, dissociation 600 s. Conditions: both partners purified. (In general: Biolayer interferometry detects binding as a change in optical thickness at a sensor tip.)

B1: Entamoeba histolytica MIF (EhMIF), recombinant (natural protein)
chain: MPHALITLSADITEEIKKEIAHESMKILSEVIGKPISYCATQVVTSVGGFGGKIVKSAFIDIKSISGLKGKQEGLSDRYCKLLEQKAGIEGGNIYLNFTEMTGNNWGYDHSTF
Regarding B1, the equilibrium dissociation constant (Kd) (usually the equilibrium constant for the complex coming apart) was 38.6 nM.
